Data published in patent publication US20110152199A1 (ONCOTHERAPY SCIENCE, published 2011).

Biological target: T1, HLA-A2 (HLA-A*0201) on cells (human, UniProt P04439 25-302 at identity 0.94))
T1 MHC heavy: not shown
Test: cell-based or functional assay

IFN-γ production by healthy donor 1-derived CTLs against T2 cells pulsed with the peptide at various concentrations (E/T ratio 5): ≥ 0.2 µg/mL
Binder: KLATAQFKI [CDCA1 351-359 (No. 4) peptide]
